First the molecules themselves.
B1: CPEB3 Ribozyme (parent)
chain: GGGGGCCACAGCAGAAGCGUUCACGUCGCGGCCCCUGUCAGAUUCUGGUGAAUCUGCGAAUUCUGCUGU

In this data set the parent is B1. The experiment in a line: self-cleavage, relative activity (ratio to wild type); higher = more cleavage; co-transcriptional.
As to GGGGGCCACAGCAGAAGCGUUCACGUCGCGGACCCUGUCACAUUCUGGUGAAUCUGCGAAUUCUGCUGU [C32A G41C], the self-cleavage came to 0.322.

On to GGGGGCCACAGCAGAAGCGUUCACGUCGCGGACCCUGUCAGAGUCUGGUGAAUCUGCGAAUUCUGCUGU [C32A U43G], for which the self-cleavage was found to be 0.374.

For GGGGGCCACAGCAGAAGCGUUCACGUCGCGGACCCUGUCAGAUUCUGGUGAAUCUGCGAGUUCUGCUGU [C32A A60G], the self-cleavage amounted to 0.454.

Take GGGGGCCACAGCAGAAGCGUUCACGUCGCGGAGCCUGUCAGAUUCUGGUGAAUCUGCGAAUUCUGCUGU [C32A C33G]: the self-cleavage stood at 0.258.

With GGGGGCCACAGCAGAAGCGUUCACGUCGCGUCCCCUGUCAGAUUCUGGUGAAUCUGCGGAUUCUGCUGU [G31U A59G], the self-cleavage turned out to be 0.514.

For the variant GGGGGCCACAGCAGAAGCGUUCACGUCGCGUCCCCUGUCAGAUUCUGGUGAAUCUGCGCAUUCUGCUGU [G31U A59C], the self-cleavage came to 0.356.

Take GGGGGCCACAGCAGAAGCGUUCACGUCGCGGACCCUGUCAGAUUCUGGUGAAUCUGCGAAUUAUGCUGU [C32A C63A]: the self-cleavage worked out at 0.317.

With GGGGGCCACAGCAGAAGCGUUCACGUCGCGUCCCCUGUCAGAUUCUGGUGAAUAUGCGAAUUCUGCUGU [G31U C54A], the self-cleavage is 0.306.

Regarding GGGGGCCACAGCAGAAGCGUUCACGUCGCGGGCCCUGUCAGAUUCUGGUGGAUCUGCGAAUUCUGCUGU [C32G A51G], the self-cleavage is 0.48.

As for GGGGGCCACAGCAGAAGCGUUCACGUCGCGGACGCUGUCAGAUUCUGGUGAAUCUGCGAAUUCUGCUGU [C32A C34G], the self-cleavage turned out to be 0.228.

Turning to GGGGGCCACAGCAGAAGCGUUCACGUCGCGUCCCCUGUCAGAUUCUGGUGAACCUGCGAAUUCUGCUGU [G31U U53C], the self-cleavage is 0.354.

As to GGGGGCCACAGCAGAAGCGUUCACGUCGCGGACCCUGUCAGAUUCUGGUGAAUCUCCGAAUUCUGCUGU [C32A G56C], the self-cleavage worked out at 0.478.

For the variant GGGGGCCACAGCAGAAGCGUUCACGUCGCGUCCCCUGUCAGAUUUUGGUGAAUCUGCGAAUUCUGCUGU [G31U C45U], the self-cleavage came out at 0.789.

Regarding GGGGGCCACAGCAGAAGCGUUCACGUCGCGUCCCCUGUCAGAUUCUGGUGAAUCUGCGAAUUCUACUGU [G31U G65A], the self-cleavage is 0.517.

Turning to GGGGGCCACAGCAGAAGCGUUCACGUCGCGGACCCUGUCAGAUUCUGGUGAAUCUGCUAAUUCUGCUGU [C32A G58U], the self-cleavage is 0.914.

Turning to GGGGGCCACAGCAGAAGCGUUCACGUCGCGUCCCCUGUCAGAUUCUGGUGAAUCUGCGAAUACUGCUGU [G31U U62A], the self-cleavage came to 0.27.

As for GGGGGCCACAGCAGAAGCGUUCACGUCGCGGACCCUGUCAGAUUCUGGUGAAUCUGCGAAUUCUUCUGU [C32A G65U], the self-cleavage is 0.418.

Consider GGGGGCCACAGCAGAAGCGUUCACGUCGCGGACCCUGUCAGAUUCUGGUGAAUCUGCGAAUUCUCCUGU [C32A G65C], for which the self-cleavage turned out to be 0.459.

Regarding GGGGGCCACAGCAGAAGCGUUCACGUCGCGUCCCCUGUCAGAUUCUGGGGAAUCUGCGAAUUCUGCUGU [G31U U49G], the self-cleavage came out at 0.421.

In the case of GGGGGCCACAGCAGAAGCGUUCACGUCGCGGACCCUGUCAGAUUCUUGUGAAUCUGCGAAUUCUGCUGU [C32A G47U], the self-cleavage turned out to be 0.897.

Regarding GGGGGCCACAGCAGAAGCGUUCACGUCGCGGACCCUGUCAGAUUCUGGUGAAUCUGCGAAUGCUGCUGU [C32A U62G], the self-cleavage is 0.324.

As for GGGGGCCACAGCAGAAGCGUUCACGUCGCGGACCCUGUCAGAUUCUGGUGAAUCUGCGAAUACUGCUGU [C32A U62A], the self-cleavage stood at 0.281.

Turning to GGGGGCCACAGCAGAAGCGUUCACGUCGCGGACCCUGUGAGAUUCUGGUGAAUCUGCGAAUUCUGCUGU [C32A C39G], the self-cleavage amounted to 0.6.

For GGGGGCCACAGCAGAAGCGUUCACGUCGCGGACCCUGUCAGAUUCUGGUGAAACUGCGAAUUCUGCUGU [C32A U53A], the self-cleavage worked out at 0.501.

As to GGGGGCCACAGCAGAAGCGUUCACGUCGCGGACCCUGUCAGAUUCUGGUGAAUCUGCGAAUUCUGGUGU [C32A C66G], the self-cleavage was found to be 0.708.

For the variant GGGGGCCACAGCAGAAGCGUUCACGUCGCGUCCCCUGUCAGAUUCUGGUGAAUCUCCGAAUUCUGCUGU [G31U G56C], the self-cleavage came out at 0.385.

As to GGGGGCCACAGCAGAAGCGUUCACGUCGCGUCCCCUGUCAGUUUCUGGUGAAUCUGCGAAUUCUGCUGU [G31U A42U], the self-cleavage is 0.485.

On to GGGGGCCACAGCAGAAGCGUUCACGUCGCGGACCCUGUCAGAUUCUGGUGCAUCUGCGAAUUCUGCUGU [C32A A51C], for which the self-cleavage was determined as 0.391.

As to GGGGGCCACAGCAGAAGCGUUCACGUCGCGGACCCUGUCAGAUUCUGGUGUAUCUGCGAAUUCUGCUGU [C32A A51U], the self-cleavage was 0.566.

GGGGGCCACAGCAGAAGCGUUCACGUCGCGGGCCCUGUCAGUUUCUGGUGAAUCUGCGAAUUCUGCUGU [C32G A42U]: the self-cleavage was 0.44.

On to GGGGGCCACAGCAGAAGCGUUCACGUCGCGGGCCCUGUCAGCUUCUGGUGAAUCUGCGAAUUCUGCUGU [C32G A42C], for which the self-cleavage amounted to 0.343.

On to GGGGGCCACAGCAGAAGCGUUCACGUCGCGGGCCCUGUCAGGUUCUGGUGAAUCUGCGAAUUCUGCUGU [C32G A42G], for which the self-cleavage was 0.569.

As for GGGGGCCACAGCAGAAGCGUUCACGUCGCGUCCCCUGUCAGAUUCUGGUGACUCUGCGAAUUCUGCUGU [G31U A52C], the self-cleavage was found to be 0.556.

Turning to GGGGGCCACAGCAGAAGCGUUCACGUCGCGUCCUCUGUCAGAUUCUGGUGAAUCUGCGAAUUCUGCUGU [G31U C34U], the self-cleavage was 0.363.

Turning to GGGGGCCACAGCAGAAGCGUUCACGUCGCGUCACCUGUCAGAUUCUGGUGAAUCUGCGAAUUCUGCUGU [G31U C33A], the self-cleavage stood at 0.235.

For GGGGGCCACAGCAGAAGCGUUCACGUCGCGGACCCUGACAGAUUCUGGUGAAUCUGCGAAUUCUGCUGU [C32A U38A], the self-cleavage amounted to 0.791.

Regarding GGGGGCCACAGCAGAAGCGUUCACGUCGCGUCCCCUGUCAGAUUCUGGUGAAUCUGCGAAUUCUGCUUU [G31U G68U], the self-cleavage was 0.974.

With GGGGGCCACAGCAGAAGCGUUCACGUCGCGUCCCCUGUCAGAUUCUGGUGAAUCUGCGAAUUCUGCUCU [G31U G68C], the self-cleavage was 0.958.

Regarding GGGGGCCACAGCAGAAGCGUUCACGUCGCGGACCCUGUCAGGUUCUGGUGAAUCUGCGAAUUCUGCUGU [C32A A42G], the self-cleavage turned out to be 0.448.
